Laboratory results from the supplement of paper PMC7877785.
± gives the uncertainty stated by the source.

Assay: self-splicing fitness, log relative to wild type (ln ratio); higher = more splicing; Tetrahymena group I intron in knt gene, E. coli kanamycin selection, DiMSum; sequences stand for … in CUCUCU…GGAGGGAAAAGUUAUCAGGCAUGCACCUGGUAGCUAGUCUUUAAACCAAUAGAUUGCAUCGGUUUAAAAGGCAAGACCGUCAAAUUGCGGGAAAGGGGUCAACAGCCGUUCAGUACCAAGUCUCAGGGGAAACUUUGAGAUGGCCUUGCAAAGGGUAUGGUAAUAAGCUGACGGACAUGGUCCUAACCACGCAGCCAAGUCCUAAGUCAACAGAUCUUCUGUUGAUAUGGAUGCAGUUCACAGACUAAAUGUCGGUCGGGGAAGAUGUAUUCUUCUCAUAAGAUAUAGUCGGACCUCUCCUUAAUGGGAGCUAGCGGAUGAAGUGAUGCAACACUGGAGCCGCUGGGAACUAAUUUGUAUGCGAAAGUAUAUUGAUUAGUUUUGGAGUACUCGUGGUCG
In short: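 Pooled colonies went to amplicon sequencing on an Illumina HiSeq 2500 after six replicate transformations. The plates were LB agar with 100 μg/mL carbenicillin, 50 μM IPTG and 0.2% rhamnose, with or without 25 μg/mL kanamycin, incubated overnight at 37°C or 30°C. The E. coli BL21(DE3) library had all eight P1ex-region intron nucleotides randomised, the intron placed in the knt kanamycin-resistance gene on pET-22b(+). DiMSum fitness is the error-weighted combination of replicate fold changes, kanamycin against none, normalised to wild type.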

| Sequence | self-splicing fitness (ln) (30 °C) | self-splicing fitness (ln) (37 °C) |
| --- | --- | --- |
| GGAAAGCAAUAUUACGUCUC | -3.22 ± 0.41 | – |
| GGAAAGCAAUAUUACGUGCG | -0.344 ± 0.11 | -0.596 ± 0.12 |
| GGAAAGCAAUAUUACGUGUA | -1.92 ± 0.096 | -1.8 ± 0.13 |
| GGAAAGCAAUAUUACGUGUC | -3.94 ± 0.31 | -1.91 ± 0.19 |
| GGACAGCAAUAUUACGAAAA | -1.42 ± 0.19 | -1.36 ± 0.15 |
| GGACAGCAAUAUUACGAAUC | -0.0402 ± 0.12 | 0.32 ± 0.17 |
| GGACAGCAAUAUUACGACAA | -1.7 ± 0.21 | -0.0889 ± 0.12 |
| GGACAGCAAUAUUACGACAG | -3.31 ± 0.21 | -2.33 ± 0.27 |
| GGACAGCAAUAUUACGAGUU | -3.64 ± 0.19 | -1.24 ± 0.11 |
| GGACAGCAAUAUUACGAUCG | -0.492 ± 0.099 | 0.519 ± 0.11 |
| GGACAGCAAUAUUACGCAAU | -0.155 ± 0.13 | 0.311 ± 0.11 |
| GGACAGCAAUAUUACGCUCC | – | -1.24 ± 0.46 |
| GGACAGCAAUAUUACGCUUA | -0.319 ± 0.08 | 0.1 ± 0.1 |
| GGACAGCAAUAUUACGGACA | -0.509 ± 0.11 | -0.307 ± 0.11 |
| GGACAGCAAUAUUACGGACU | -1.01 ± 0.079 | -0.461 ± 0.09 |
| GGACAGCAAUAUUACGGCAU | -0.228 ± 0.053 | 0.0818 ± 0.068 |
| GGACAGCAAUAUUACGGCGG | -2.64 ± 0.13 | -1.52 ± 0.13 |
| GGACAGCAAUAUUACGGGUG | -2.51 ± 0.097 | -1.64 ± 0.1 |
| GGACAGCAAUAUUACGUAUG | -1.13 ± 0.073 | -0.419 ± 0.08 |
| GGACAGCAAUAUUACGUCCG | -2.1 ± 0.12 | -1.89 ± 0.18 |
| GGACAGCAAUAUUACGUCUC | -4.03 ± 0.18 | -2.57 ± 0.2 |
| GGACAGCAAUAUUACGUGGU | -2.9 ± 0.12 | -1.08 ± 0.11 |
| GGACAGCAAUAUUACGUGUU | -3.42 ± 0.13 | -2.44 ± 0.2 |
| GGACAGCAAUAUUACGUUUA | -0.44 ± 0.059 | 0.258 ± 0.077 |
| GGAGAGCAAUAUUACGACUC | -1.21 ± 0.23 | -0.0732 ± 0.34 |

| Sequence | self-splicing fitness (ln) (30 °C) | self-splicing fitness (ln) (37 °C) |
| --- | --- | --- |
| GGAGAGCAAUAUUACGACUG | – | -1.15 ± 0.27 |
| GGAGAGCAAUAUUACGAGCC | -2.64 ± 0.49 | – |
| GGAGAGCAAUAUUACGAGCG | – | -1.86 ± 0.37 |
| GGAGAGCAAUAUUACGAUAG | – | -1.94 ± 0.28 |
| GGAGAGCAAUAUUACGAUCA | -1.04 ± 0.16 | -1.73 ± 0.25 |
| GGAGAGCAAUAUUACGCAAU | -3.02 ± 0.2 | -2.55 ± 0.31 |
| GGAGAGCAAUAUUACGCGUG | -3.84 ± 0.33 | -2.53 ± 0.18 |
| GGAGAGCAAUAUUACGCUCC | – | -1.68 ± 0.45 |
| GGAGAGCAAUAUUACGCUCG | -2.7 ± 0.24 | -2.45 ± 0.19 |
| GGAGAGCAAUAUUACGCUUA | -2.12 ± 0.14 | -0.41 ± 0.14 |
| GGAGAGCAAUAUUACGGAGU | – | -2.68 ± 0.31 |
| GGAGAGCAAUAUUACGGCAA | -2.75 ± 0.47 | -1.59 ± 0.43 |
| GGAGAGCAAUAUUACGGUUG | -2.38 ± 0.22 | -2.05 ± 0.38 |
| GGAGAGCAAUAUUACGUCGG | -4.62 ± 0.39 | -3.75 ± 0.3 |
| GGAGAGCAAUAUUACGUCUA | -1.23 ± 0.13 | -1.4 ± 0.1 |
| GGAGAGCAAUAUUACGUGAG | -3.33 ± 0.23 | -1.56 ± 0.2 |
| GGAGAGCAAUAUUACGUGCC | – | -2.38 ± 0.42 |
| GGAGAGCAAUAUUACGUGGC | – | -1.63 ± 0.25 |
| GGAGAGCAAUAUUACGUUCU | -3.27 ± 0.25 | -3.5 ± 0.39 |
| GGAGAGCAAUAUUACGUUUG | – | -2.01 ± 0.38 |
| GGAUAGCAAUAUUACGAACA | -1.95 ± 0.19 | 0.22 ± 0.15 |
| GGAUAGCAAUAUUACGAACG | 0.209 ± 0.14 | -0.196 ± 0.18 |
| GGAUAGCAAUAUUACGAAUA | – | 0.53 ± 0.21 |
| GGAUAGCAAUAUUACGACAG | -4.21 ± 0.37 | -2.36 ± 0.29 |
| GGAUAGCAAUAUUACGACCG | -1.59 ± 0.26 | -1.08 ± 0.28 |

| Sequence | self-splicing fitness (ln) (30 °C) | self-splicing fitness (ln) (37 °C) |
| --- | --- | --- |
| GGAUAGCAAUAUUACGACGA | -1.43 ± 0.12 | -0.57 ± 0.1 |
| GGAUAGCAAUAUUACGACGG | – | -2.87 ± 0.48 |
| GGAUAGCAAUAUUACGACUC | -0.498 ± 0.16 | 0.298 ± 0.23 |
| GGAUAGCAAUAUUACGAGAG | -1.8 ± 0.23 | -3.09 ± 0.47 |
| GGAUAGCAAUAUUACGAGCG | -0.76 ± 0.1 | -0.0359 ± 0.088 |
| GGAUAGCAAUAUUACGAGUG | -3.38 ± 0.22 | -1.41 ± 0.14 |
| GGAUAGCAAUAUUACGAUAC | -1.23 ± 0.13 | -1.8 ± 0.16 |
| GGAUAGCAAUAUUACGAUGA | -1.04 ± 0.15 | -0.858 ± 0.14 |
| GGAUAGCAAUAUUACGCAUA | -1.88 ± 0.45 | -2.04 ± 0.39 |
| GGAUAGCAAUAUUACGCCUC | -2.02 ± 0.32 | – |
| GGAUAGCAAUAUUACGGCAC | -1.16 ± 0.14 | -0.0176 ± 0.17 |
| GGAUAGCAAUAUUACGGCAU | -0.507 ± 0.09 | 0.598 ± 0.11 |
| GGAUAGCAAUAUUACGGGUA | -2.41 ± 0.16 | 0.0404 ± 0.13 |
| GGAUAGCAAUAUUACGGGUC | -4.23 ± 0.46 | -2.64 ± 0.29 |
| GGAUAGCAAUAUUACGUCCA | -1.4 ± 0.17 | -0.317 ± 0.19 |
| GGAUAGCAAUAUUACGUGAC | -2.63 ± 0.35 | -1.46 ± 0.26 |
| GGAUAGCAAUAUUACGUGCA | -1.3 ± 0.11 | 0.203 ± 0.12 |
| GGAUAGCAAUAUUACGUUAU | -4.06 ± 0.24 | -3.28 ± 0.23 |
| GGAUAGCAAUAUUACGUUUA | -1.02 ± 0.16 | 0.714 ± 0.14 |
| GGCAAGCAAUAUUACGAGAA | -1.8 ± 0.29 | -1.74 ± 0.26 |
| GGCAAGCAAUAUUACGAGAG | -3.94 ± 0.24 | -2.26 ± 0.15 |
| GGCAAGCAAUAUUACGAGAU | -2.56 ± 0.21 | -0.168 ± 0.15 |
| GGCAAGCAAUAUUACGAGCA | -0.434 ± 0.13 | -0.381 ± 0.14 |
| GGCAAGCAAUAUUACGCGGG | -3.73 ± 0.21 | -3.23 ± 0.26 |
| GGCAAGCAAUAUUACGGAAC | -1.46 ± 0.13 | 0.485 ± 0.21 |

| Sequence | self-splicing fitness (ln) (30 °C) | self-splicing fitness (ln) (37 °C) |
| --- | --- | --- |
| GGCAAGCAAUAUUACGGACU | 0.0032 ± 0.071 | 0.777 ± 0.096 |
| GGCAAGCAAUAUUACGGAGC | -1.36 ± 0.2 | 0.0393 ± 0.25 |
| GGCAAGCAAUAUUACGGGAA | -1.34 ± 0.12 | -1.16 ± 0.13 |
| GGCAAGCAAUAUUACGGUAC | -0.729 ± 0.072 | -0.752 ± 0.09 |
| GGCAAGCAAUAUUACGUACU | -0.208 ± 0.072 | 0.344 ± 0.088 |
| GGCAAGCAAUAUUACGUCAA | -1.84 ± 0.14 | -0.756 ± 0.12 |
| GGCAAGCAAUAUUACGUCGA | -0.765 ± 0.13 | -0.561 ± 0.13 |
| GGCAAGCAAUAUUACGUCUG | -3.13 ± 0.18 | -1.09 ± 0.094 |
| GGCAAGCAAUAUUACGUGUU | -1.96 ± 0.059 | -1.83 ± 0.076 |
| GGCAAGCAAUAUUACGUUCC | -1.43 ± 0.11 | -0.714 ± 0.14 |
| GGCAAGCAAUAUUACGUUCG | -0.0493 ± 0.065 | -0.196 ± 0.08 |
| GGCAAGCAAUAUUACGUUUU | -0.0842 ± 0.054 | 0.186 ± 0.082 |
| GGCCAGCAAUAUUACGAAGG | – | -2.62 ± 0.33 |
| GGCCAGCAAUAUUACGAAUC | -0.266 ± 0.11 | 0.822 ± 0.14 |
| GGCCAGCAAUAUUACGAGAU | -2.68 ± 0.18 | -2.82 ± 0.24 |
| GGCCAGCAAUAUUACGAGGA | – | -1.26 ± 0.15 |
| GGCCAGCAAUAUUACGAGGU | -3.26 ± 0.45 | -2.45 ± 0.32 |
| GGCCAGCAAUAUUACGAGUA | -2.59 ± 0.12 | -2.05 ± 0.12 |
| GGCCAGCAAUAUUACGAUAU | -1.67 ± 0.08 | -1.78 ± 0.1 |
| GGCCAGCAAUAUUACGCAUA | -1.52 ± 0.095 | -0.945 ± 0.12 |
| GGCCAGCAAUAUUACGCGGG | -3.29 ± 0.48 | -3.29 ± 0.37 |
| GGCCAGCAAUAUUACGCGUA | -1.07 ± 0.11 | -0.484 ± 0.1 |
| GGCCAGCAAUAUUACGGAGA | -0.788 ± 0.095 | -0.565 ± 0.086 |
| GGCCAGCAAUAUUACGGCUG | -1.41 ± 0.12 | -0.562 ± 0.2 |
| GGCCAGCAAUAUUACGGGCG | -2.13 ± 0.2 | -2.02 ± 0.26 |
